Measurements published in doi:10.1101/2021.09.10.459738.

Molecular target: heat-denatured ovalbumin (UniProt P01012)
Assay: ELISA

UniProt P01012, sequence (P01012 whole entry): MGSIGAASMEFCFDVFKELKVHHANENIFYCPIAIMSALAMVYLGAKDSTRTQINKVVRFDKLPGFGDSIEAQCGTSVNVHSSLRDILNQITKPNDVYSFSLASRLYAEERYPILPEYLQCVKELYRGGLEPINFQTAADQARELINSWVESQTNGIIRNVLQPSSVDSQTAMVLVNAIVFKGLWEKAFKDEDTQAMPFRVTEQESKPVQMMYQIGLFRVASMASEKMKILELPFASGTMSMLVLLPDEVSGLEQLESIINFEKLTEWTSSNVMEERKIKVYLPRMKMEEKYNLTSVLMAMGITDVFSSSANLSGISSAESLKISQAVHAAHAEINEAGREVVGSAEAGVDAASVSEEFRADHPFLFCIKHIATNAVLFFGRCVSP

Kd: 300 µM
Substance: human IRE1α-LD-Fc fusion protein (from UniProt O75460 19-443)
